Assay results as given in PMC9482650, “Quantitative fragmentomics allow affinity mapping of interactomes” (Nature Communications, 2022).

Tests used:
Assay in all cases: holdup assay
Set-up in all cases: key: below the threshold = too weak to quantify, mostly under pKd 3.1 to 4
SCRIB_2, Q14160 = molecular target: SCRIB_2, Q14160
LNX1_3, Q8TBB1 = molecular target: LNX1_3, Q8TBB1
DVL3, Q92997 = molecular target: T1, DVL3, Q92997
T1 sequence (Q92997 244-331, limits assumed, looked up): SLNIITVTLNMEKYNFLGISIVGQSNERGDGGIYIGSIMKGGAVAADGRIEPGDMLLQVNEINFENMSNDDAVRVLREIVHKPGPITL

LIN7C, Q9NUP9 = molecular target: T2, LIN7C, Q9NUP9
T2 sequence (Q9NUP9 88-185, limits assumed, looked up): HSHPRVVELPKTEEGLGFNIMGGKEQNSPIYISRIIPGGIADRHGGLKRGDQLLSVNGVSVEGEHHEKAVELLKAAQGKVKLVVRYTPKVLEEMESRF

FRMPD2_2, Q68DX3 = molecular target: FRMPD2_2, Q68DX3
CASK, O14936 = molecular target: CASK, O14936
MAGI2_4, Q86UL8 = molecular target: MAGI2_4, Q86UL8
NOS1, P29475 = molecular target: NOS1, P29475
APBA2_1, Q99767 = molecular target: T3, APBA2_1, Q99767
T3 sequence (Q99767 563-664, limits assumed, looked up): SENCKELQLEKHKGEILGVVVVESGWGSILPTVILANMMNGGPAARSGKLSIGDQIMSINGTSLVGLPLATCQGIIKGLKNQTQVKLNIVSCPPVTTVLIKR

MPDZ_5, O75970 = molecular target: T4, MPDZ_5, O75970
T4 sequence (O75970 695-796, limits assumed, looked up): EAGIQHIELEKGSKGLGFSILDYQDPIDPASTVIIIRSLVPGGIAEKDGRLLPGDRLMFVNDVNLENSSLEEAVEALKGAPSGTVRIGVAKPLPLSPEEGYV

SHANK1, Q9Y566 = molecular target: T5, SHANK1, Q9Y566
T5 sequence (Q9Y566 658-767, limits assumed, looked up): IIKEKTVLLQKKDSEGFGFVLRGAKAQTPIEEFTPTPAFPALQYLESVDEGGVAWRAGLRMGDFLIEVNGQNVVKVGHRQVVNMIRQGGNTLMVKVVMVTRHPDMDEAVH

GOPC, Q9HD26 = molecular target: GOPC, Q9HD26
GRIP1_7, Q9Y3R0 = molecular target: T6, GRIP1_7, Q9Y3R0
T6 sequence (Q9Y3R0 999-1096, limits assumed, looked up): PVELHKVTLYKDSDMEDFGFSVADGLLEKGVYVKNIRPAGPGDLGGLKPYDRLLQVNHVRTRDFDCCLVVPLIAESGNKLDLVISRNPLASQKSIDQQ

DLG3_3, Q92796 = molecular target: T7, DLG3_3, Q92796
T7 sequence (Q92796 374-475, limits assumed, looked up): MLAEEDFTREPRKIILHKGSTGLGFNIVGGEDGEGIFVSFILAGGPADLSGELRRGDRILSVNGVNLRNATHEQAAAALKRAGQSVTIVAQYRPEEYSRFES

FRMPD2_1, Q68DX3 = molecular target: FRMPD2_1, Q68DX3
GORASP1, Q9BQQ3 = molecular target: GORASP1, Q9BQQ3
MAGI2_6, Q86UL8 = molecular target: MAGI2_6, Q86UL8
Inadl_5, Q8NI35 = molecular target: Inadl_5, Q8NI35
LAP2, Q96RT1 = molecular target: LAP2, Q96RT1
DLG1_3, Q12959 = molecular target: DLG1_3, Q12959
Inadl_1, Q8NI35 = molecular target: Inadl_1, Q8NI35
PDZD7_3, Q9H5P4 = molecular target: T8, PDZD7_3, Q9H5P4
T8 sequence (Q9H5P4 857-944, limits assumed, looked up): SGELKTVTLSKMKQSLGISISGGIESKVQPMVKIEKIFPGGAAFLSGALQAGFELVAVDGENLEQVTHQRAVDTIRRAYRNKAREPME

APBA1_2, Q02410 = molecular target: T9, APBA1_2, Q02410
T9 sequence (Q02410 742-832, limits assumed, looked up): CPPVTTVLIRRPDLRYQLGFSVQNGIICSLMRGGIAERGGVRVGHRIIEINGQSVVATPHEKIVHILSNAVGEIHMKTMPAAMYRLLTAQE

DLG4_3, P78352 = molecular target: DLG4_3, P78352
FRMPD2_3, Q68DX3 = molecular target: FRMPD2_3, Q68DX3
SNTB1, Q13884 = molecular target: T10, SNTB1, Q13884
T10 sequence (Q13884 107-205, limits assumed, looked up): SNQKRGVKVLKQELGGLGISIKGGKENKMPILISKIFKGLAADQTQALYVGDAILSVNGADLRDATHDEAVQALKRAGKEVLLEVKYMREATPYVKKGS

FRMPD1, Q5SYB0 = molecular target: T11, FRMPD1, Q5SYB0
T11 sequence (Q5SYB0 52-145, limits assumed, looked up): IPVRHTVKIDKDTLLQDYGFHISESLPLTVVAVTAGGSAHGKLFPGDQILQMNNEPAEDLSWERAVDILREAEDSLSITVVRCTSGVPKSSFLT

[1] = plain residues with an end cap or a label only (N-terminal biotin on a linker: ado-ado)
[2] = plain residues with an end cap or a label only (N-terminal biotin on a linker: ttds)

Chain of FRMPD2_3, Q68DX3 (Q68DX3 1073-1166): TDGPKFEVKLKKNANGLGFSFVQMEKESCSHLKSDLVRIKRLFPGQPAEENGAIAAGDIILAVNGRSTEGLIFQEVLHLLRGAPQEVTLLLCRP
Chain of SCRIB_2, Q14160 (Q14160 857-960): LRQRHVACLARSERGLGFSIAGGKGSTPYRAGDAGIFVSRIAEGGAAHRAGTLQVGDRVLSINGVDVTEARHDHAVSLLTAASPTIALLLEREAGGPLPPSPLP
Chain of Inadl_5, Q8NI35 (Q8NI35 673-780): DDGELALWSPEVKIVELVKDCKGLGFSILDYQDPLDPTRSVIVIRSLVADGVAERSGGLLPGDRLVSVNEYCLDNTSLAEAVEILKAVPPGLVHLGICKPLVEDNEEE
Chain of CASK, O14936 (O14936 487-570): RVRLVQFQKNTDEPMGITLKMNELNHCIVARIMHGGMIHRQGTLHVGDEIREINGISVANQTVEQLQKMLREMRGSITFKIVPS
Chain of DLG1_3, Q12959 (Q12959 457-571): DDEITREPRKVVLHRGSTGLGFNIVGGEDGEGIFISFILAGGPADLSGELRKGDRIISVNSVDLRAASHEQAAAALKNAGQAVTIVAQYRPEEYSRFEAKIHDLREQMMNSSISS
Chain of NOS1, P29475 (P29475 9-101): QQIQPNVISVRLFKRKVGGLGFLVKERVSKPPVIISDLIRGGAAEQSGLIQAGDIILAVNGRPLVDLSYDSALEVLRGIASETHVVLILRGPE
Chain of Inadl_1, Q8NI35 (Q8NI35 113-229): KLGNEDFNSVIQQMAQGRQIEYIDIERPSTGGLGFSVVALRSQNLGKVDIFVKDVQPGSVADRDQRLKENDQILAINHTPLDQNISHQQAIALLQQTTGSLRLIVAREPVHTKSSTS
Chain of FRMPD2_1, Q68DX3 (Q68DX3 770-861): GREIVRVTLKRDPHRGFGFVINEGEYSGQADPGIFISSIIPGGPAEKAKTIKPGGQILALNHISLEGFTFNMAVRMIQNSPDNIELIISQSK
Chain of MAGI2_6, Q86UL8 (Q86UL8 1141-1229): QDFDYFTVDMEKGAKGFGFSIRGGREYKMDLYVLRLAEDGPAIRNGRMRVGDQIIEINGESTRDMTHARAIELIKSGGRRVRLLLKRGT
Chain of MAGI2_4, Q86UL8 (Q86UL8 772-865): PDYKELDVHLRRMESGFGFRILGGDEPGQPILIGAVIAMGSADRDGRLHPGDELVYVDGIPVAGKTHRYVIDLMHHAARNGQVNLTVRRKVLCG
Chain of DLG4_3, P78352 (P78352 306-403): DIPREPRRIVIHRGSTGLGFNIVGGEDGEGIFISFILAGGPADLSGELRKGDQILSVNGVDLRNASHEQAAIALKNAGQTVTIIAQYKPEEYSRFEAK
Chain of LAP2, Q96RT1 (Q96RT1 other isoform, or with tags, fused parts or gaps): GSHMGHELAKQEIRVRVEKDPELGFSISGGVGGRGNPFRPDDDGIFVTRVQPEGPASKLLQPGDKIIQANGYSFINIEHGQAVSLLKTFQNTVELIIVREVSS
Chain of LNX1_3, Q8TBB1 (Q8TBB1 500-596): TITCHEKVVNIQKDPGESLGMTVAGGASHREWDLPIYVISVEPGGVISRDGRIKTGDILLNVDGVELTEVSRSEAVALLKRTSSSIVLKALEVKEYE
Chain of GORASP1, Q9BQQ3 (Q9BQQ3 1-208): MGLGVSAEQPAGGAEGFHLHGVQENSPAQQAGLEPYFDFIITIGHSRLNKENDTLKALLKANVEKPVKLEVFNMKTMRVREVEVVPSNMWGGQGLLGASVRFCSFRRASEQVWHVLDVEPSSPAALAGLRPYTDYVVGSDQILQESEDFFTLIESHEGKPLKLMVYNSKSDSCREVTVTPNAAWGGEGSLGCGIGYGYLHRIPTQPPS
Chain of FRMPD2_2, Q68DX3 (Q68DX3 944-1038): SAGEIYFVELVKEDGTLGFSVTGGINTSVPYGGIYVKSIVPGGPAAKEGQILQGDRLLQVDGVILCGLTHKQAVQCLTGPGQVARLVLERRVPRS

EDLTKNHDEL [RCN1, Q15293]
pKd (SCRIB_2, Q14160; [1]): 3.54 | pKd (LNX1_3, Q8TBB1; [1]): 3.54 | pKd (DVL3, Q92997; [1]): below the threshold | pKd (LIN7C, Q9NUP9; [1]): below the threshold | pKd (FRMPD2_2, Q68DX3; [1]): below the threshold | pKd (CASK, O14936; [1]): below the threshold | pKd (MAGI2_4, Q86UL8; [1]): 3.57 | pKd (NOS1, P29475; [1]): 3.78 | pKd (APBA2_1, Q99767; [1]): 3.49 | pKd (MPDZ_5, O75970; [1]): below the threshold | pKd (SHANK1, Q9Y566; [1]): below the threshold | pKd (GOPC, Q9HD26; [1]): 3.52 | pKd (GRIP1_7, Q9Y3R0; [1]): below the threshold | pKd (DLG3_3, Q92796; [1]): below the threshold | pKd (FRMPD2_1, Q68DX3; [1]): below the threshold | pKd (GORASP1, Q9BQQ3; [1]): below the threshold | pKd (MAGI2_6, Q86UL8; [1]): 3.54 | pKd (Inadl_5, Q8NI35; [1]): below the threshold | pKd (LAP2, Q96RT1; [1]): below the threshold | pKd (DLG1_3, Q12959; [1]): 3.8 | pKd (Inadl_1, Q8NI35; [1]): below the threshold | pKd (PDZD7_3, Q9H5P4; [1]): below the threshold | pKd (APBA1_2, Q02410; [1]): 3.66 | pKd (DLG4_3, P78352; [1]): 4 | pKd (FRMPD2_3, Q68DX3; [1]): below the threshold | pKd (SNTB1, Q13884; [1]): below the threshold | pKd (FRMPD1, Q5SYB0; [1]): below the threshold

PKRPFVESNV [TANC2, Q9HCD6]
pKd (SCRIB_2, Q14160; [2]): 4.59 | pKd (LNX1_3, Q8TBB1; [2]): below the threshold | pKd (DVL3, Q92997; [2]): below the threshold | pKd (LIN7C, Q9NUP9; [2]): below the threshold | pKd (FRMPD2_2, Q68DX3; [2]): below the threshold | pKd (CASK, O14936; [2]): below the threshold | pKd (MAGI2_4, Q86UL8; [2]): below the threshold | pKd (NOS1, P29475; [2]): below the threshold | pKd (APBA2_1, Q99767; [2]): below the threshold | pKd (MPDZ_5, O75970; [2]): below the threshold | pKd (SHANK1, Q9Y566; [2]): below the threshold | pKd (GOPC, Q9HD26; [2]): below the threshold | pKd (GRIP1_7, Q9Y3R0; [2]): below the threshold | pKd (DLG3_3, Q92796; [2]): 3.67 | pKd (FRMPD2_1, Q68DX3; [2]): below the threshold | pKd (GORASP1, Q9BQQ3; [2]): below the threshold | pKd (MAGI2_6, Q86UL8; [2]): 3.76 | pKd (Inadl_5, Q8NI35; [2]): below the threshold | pKd (LAP2, Q96RT1; [2]): 4.74 | pKd (DLG1_3, Q12959; [2]): 3.77 | pKd (Inadl_1, Q8NI35; [2]): below the threshold | pKd (PDZD7_3, Q9H5P4; [2]): below the threshold | pKd (APBA1_2, Q02410; [2]): below the threshold | pKd (DLG4_3, P78352; [2]): below the threshold | pKd (FRMPD2_3, Q68DX3; [2]): below the threshold | pKd (SNTB1, Q13884; [2]): 4.49 | pKd (FRMPD1, Q5SYB0; [2]): below the threshold
